pKd: −log10 of the molar value.
What follows are substances tested against B/NP_TAIL mut1-YFP, B/NP_TAIL-YFP with point mutations in the positive charge patch of the NLS (influenza B virus B/Memphis/13/03) (assay: SPR).
Chain of human importin-α3 without its importin-β binding (IBB) domain (residues 64 to 521) (O00629 64-521): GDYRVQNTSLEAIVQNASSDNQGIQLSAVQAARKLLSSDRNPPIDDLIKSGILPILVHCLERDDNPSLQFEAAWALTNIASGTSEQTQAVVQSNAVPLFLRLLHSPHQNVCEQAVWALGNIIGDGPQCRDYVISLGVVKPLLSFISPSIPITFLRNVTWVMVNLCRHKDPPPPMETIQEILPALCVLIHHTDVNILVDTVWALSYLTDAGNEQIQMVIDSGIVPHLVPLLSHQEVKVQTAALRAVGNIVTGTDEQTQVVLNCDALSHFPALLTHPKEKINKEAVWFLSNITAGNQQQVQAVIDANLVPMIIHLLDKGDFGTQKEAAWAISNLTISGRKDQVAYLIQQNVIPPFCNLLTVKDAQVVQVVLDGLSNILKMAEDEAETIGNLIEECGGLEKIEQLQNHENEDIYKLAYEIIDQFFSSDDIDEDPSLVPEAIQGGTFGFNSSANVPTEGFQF
Chain of human importin-α5 without its importin-β binding (IBB) domain (residues 66 to 538) (P52294 66-538): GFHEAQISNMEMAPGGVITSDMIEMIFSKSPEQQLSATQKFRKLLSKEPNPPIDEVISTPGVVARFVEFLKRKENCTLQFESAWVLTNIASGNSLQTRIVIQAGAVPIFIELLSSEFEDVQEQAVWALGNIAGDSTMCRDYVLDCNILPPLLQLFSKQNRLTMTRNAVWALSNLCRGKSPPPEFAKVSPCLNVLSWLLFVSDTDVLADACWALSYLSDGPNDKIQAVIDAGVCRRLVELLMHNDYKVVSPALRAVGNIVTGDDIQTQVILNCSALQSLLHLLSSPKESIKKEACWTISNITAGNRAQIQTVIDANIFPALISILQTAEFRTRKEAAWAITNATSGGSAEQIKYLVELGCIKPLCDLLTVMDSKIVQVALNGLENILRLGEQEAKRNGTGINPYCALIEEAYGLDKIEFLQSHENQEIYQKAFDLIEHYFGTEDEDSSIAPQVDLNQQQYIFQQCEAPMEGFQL
Chain of human importin-α7 without its importin-β binding (IBB) domain (residues 58 to 536) (O60684 58-536): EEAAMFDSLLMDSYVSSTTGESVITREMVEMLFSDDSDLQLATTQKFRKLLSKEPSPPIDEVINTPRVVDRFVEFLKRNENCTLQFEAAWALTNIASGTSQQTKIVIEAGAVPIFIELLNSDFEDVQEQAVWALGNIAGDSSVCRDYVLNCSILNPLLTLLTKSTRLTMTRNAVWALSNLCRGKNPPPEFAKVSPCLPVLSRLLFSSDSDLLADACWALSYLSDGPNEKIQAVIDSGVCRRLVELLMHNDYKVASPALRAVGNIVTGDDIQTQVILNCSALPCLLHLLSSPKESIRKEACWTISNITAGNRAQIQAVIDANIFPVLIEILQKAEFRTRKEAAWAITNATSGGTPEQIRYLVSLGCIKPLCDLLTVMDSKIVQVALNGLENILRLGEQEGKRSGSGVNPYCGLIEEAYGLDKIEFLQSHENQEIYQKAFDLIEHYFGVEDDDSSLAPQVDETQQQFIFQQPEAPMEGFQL
“human importin-α3 without its importin-β binding (IBB) domain (residues 64 to 521) (from UniProt O00629 64-521) (domain or fragment)” was tested, and the pKd was less than 5.30.
For “human importin-α5 without its importin-β binding (IBB) domain (residues 66 to 538) (from UniProt P52294 66-538) (domain or fragment)”, the pKd was less than 5.30.
“human importin-α7 without its importin-β binding (IBB) domain (residues 58 to 536) (from UniProt O60684 58-536) (domain or fragment)” was tested, and the pKd was less than 5.30.
